Test results as given in PMC11968938 (Scientific Reports, 2025).
Like-named read-outs stand apart in the source and are kept apart here.

B1: BBH37_(131-312) (domain or fragment, B. burgdorferi B31, UniProt O50692 131-312, looked up)
chain: FFPSTEEEKQADKAIKDIENLIGESGFPELIENVCSLKHEYTLIRSDFYDVITKIQNKKISLMKNSHNNRNKIRELVQLQNNLKIGDELDKIMGCIDTAEQEIRSAAFFFDEAKESLKEGIIKRLEKSKNRAASQLSKKALNRAEDALRCLENYSSKKGEAIGRRSFIKEVVEQAKNALSKS
modifications: Cys165 in a disulfide bond with Cys165 of the other protomer
B2: BBH37_(119-312) (domain or fragment, B. burgdorferi B31, UniProt O50692 119-312, looked up)
chain: EHNQKKEIKEEDFFPSTEEEKQADKAIKDIENLIGESGFPELIENVCSLKHEYTLIRSDFYDVITKIQNKKISLMKNSHNNRNKIRELVQLQNNLKIGDELDKIMGCIDTAEQEIRSAAFFFDEAKESLKEGIIKRLEKSKNRAASQLSKKALNRAEDALRCLENYSSKKGEAIGRRSFIKEVVEQAKNALSKS
modifications: Cys165 in a disulfide bond with Cys165 of the other protomer

How the values were obtained:
crystal structure [1] = target: the molecule itself; assay: crystal structure
crystal structure [2] = target: the molecule itself; assay: crystal structure; remark: listed apart in the source

Row | Protein | stoichiometry N (crystal structure [1]) | stoichiometry N (crystal structure [2])
1 | B1 | 2 | 
2 | B2 |  | 2
